The target in this experiment is His6-FLAG-tagged U2AF2 (amino acids 367-475), purified from E. coli (UniProt P26368 367-475). Put plainly: co-IP.

This note sets out measurements from article PMC7065273 (Molecular cell, 2019).

Chain of His6-FLAG-tagged U2AF2 (amino acids 367-475), purified from E. coli (P26368 367-475): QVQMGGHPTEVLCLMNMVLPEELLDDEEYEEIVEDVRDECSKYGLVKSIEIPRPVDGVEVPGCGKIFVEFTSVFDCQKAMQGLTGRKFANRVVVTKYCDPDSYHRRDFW

B1: GST-tagged SUGP1 (amino acids 366-401), purified from E. coli (domain or fragment, UniProt Q8IWZ8 366-401, looked up)
chain: APAAPGKPASAATVKRKRKSRWGPEEDKVELPPAEL
For B1, the binding result is “binds”.
